Laboratory results from article PMC11772769, “Selective cargo and membrane recognition by SNX17 regulates its interaction with Retriever” (EMBO Reports, 2024).
Where no end group is shown, it is not given here. The star is where a group is joined. 5FAM = O=C1OC2(c3ccc(O)cc3Oc3cc(O)ccc32)c2ccc(C(=O)*)cc21

B2: MBP-SNX17 H457A (natural protein)
chain: MHFSIPETESRSGDSGGSAYVAYNIHVNGVLHCRVRYSQLLGLHEQLRKEYGANVLPAFPPKKLFSLTPAEVEQRREQLEKYMQAVRQDPLLGSSETFNSFLRRAQQETQQVPTEEVSLEVLLSNGQKVLVNVLTSDQTEDVLEAVAAKLDLPDDLIGYFSLFLVREKEDGAFSFVRKLQEFELPYVSVTSLRSQEYKIVLRKSYWDSAYDDDVMENRVGLNLLYAQTVSDIERGWILVTKEQHRQLKSLQEKVSKKEFLRLAQTLRHYGYLRFDACVADFPEKDCPVVVSAGNSELSLQLRLPGQQLREGSFRVTRMRCWRVTSSVPLPSGSTSSPGRGRGEVRLELAFEYLMSKDRLQWVTITSPQAIMMSICLQSMVDELMVKKSGGSIRKMLRRRVGGTLRRSDSQQAVKSPPLLESPDATRESMVKLSSKLSAVSLRGIGSPSTDASASDVAGNFAFEGIGDEDL
notes: not shown: MBP, N-terminal, kept
B4: SNX17_(FERM-CT) (amino acids 109-470) (domain or fragment)
chain: TQQVPTEEVSLEVLLSNGQKVLVNVLTSDQTEDVLEAVAAKLDLPDDLIGYFSLFLVREKEDGAFSFVRKLQEFELPYVSVTSLRSQEYKIVLRKSYWDSAYDDDVMENRVGLNLLYAQTVSDIERGWILVTKEQHRQLKSLQEKVSKKEFLRLAQTLRHYGYLRFDACVADFPEKDCPVVVSAGNSELSLQLRLPGQQLREGSFRVTRMRCWRVTSSVPLPSGSTSSPGRGRGEVRLELAFEYLMSKDRLQWVTITSPQAIMMSICLQSMVDELMVKKSGGSIRKMLRRRVGGTLRRSDSQQAVKSPPLLESPDATRESMVKLSSKLSAVSLRGIGSPSTDASASDVHGNFAFEGIGDEDL

Columns and labels:
Settings in all cases: both partners purified
[1] = molecular target: B4; experiment: fluorescence polarisation
[2] = molecular target: T1, MBP-SNX17 (full-length, wild-type) (UniProt Q15036 1-470); experiment: pull-down
T1 construct: also called MBP-SNX17FL; WT; not shown: MBP, N-terminal, kept
T1 sequence (looked up): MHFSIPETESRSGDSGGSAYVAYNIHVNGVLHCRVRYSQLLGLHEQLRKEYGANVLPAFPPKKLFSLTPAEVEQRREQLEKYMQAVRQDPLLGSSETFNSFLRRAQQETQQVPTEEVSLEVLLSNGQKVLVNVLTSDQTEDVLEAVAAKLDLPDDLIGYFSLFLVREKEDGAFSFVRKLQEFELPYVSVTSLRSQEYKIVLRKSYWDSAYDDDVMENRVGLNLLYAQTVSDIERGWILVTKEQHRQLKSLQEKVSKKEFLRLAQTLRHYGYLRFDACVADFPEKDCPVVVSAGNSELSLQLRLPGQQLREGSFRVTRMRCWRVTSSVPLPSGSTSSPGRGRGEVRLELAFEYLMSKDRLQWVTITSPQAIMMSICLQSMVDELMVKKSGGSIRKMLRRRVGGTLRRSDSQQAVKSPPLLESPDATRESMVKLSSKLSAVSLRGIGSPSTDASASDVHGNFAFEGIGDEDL

Retriever complex [3] = molecular target: T2, Retriever complex (UniProt O14972 1-297; Q9UBQ0 1-182; Q7Z3J2 1-963); experiment: pull-down
Retriever complex [4] = molecular target: T2, Retriever complex; experiment: pull-down; GST pull-down: GST-L2FBR on glutathione agarose, Retriever together with SNX17PX, SNX17 FERM-CT or MBP-SNX17FL; VPS35L band quantified; Coomassie
MBP-SNX17 N459A + F462A = molecular target: T3, MBP-SNX17 N459A + F462A (UniProt Q15036 1-470, N459A | F462A); experiment: fluorescence polarisation
T3 construct: not shown: MBP, N-terminal, kept
T3 sequence (looked up): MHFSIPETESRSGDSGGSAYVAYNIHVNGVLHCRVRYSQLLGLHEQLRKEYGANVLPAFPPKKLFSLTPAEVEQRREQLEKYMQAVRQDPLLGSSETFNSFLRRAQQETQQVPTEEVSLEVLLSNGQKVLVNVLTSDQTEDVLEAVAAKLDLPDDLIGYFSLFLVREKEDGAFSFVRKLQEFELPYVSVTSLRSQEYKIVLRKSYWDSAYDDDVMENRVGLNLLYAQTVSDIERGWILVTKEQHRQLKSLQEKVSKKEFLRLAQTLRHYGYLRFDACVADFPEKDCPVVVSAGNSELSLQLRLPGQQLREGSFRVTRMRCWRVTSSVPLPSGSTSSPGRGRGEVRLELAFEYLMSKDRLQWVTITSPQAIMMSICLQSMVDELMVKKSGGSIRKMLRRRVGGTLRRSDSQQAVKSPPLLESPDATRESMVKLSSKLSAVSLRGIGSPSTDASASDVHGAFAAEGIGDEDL

MBP-SNX17 L470G = molecular target: T4, MBP-SNX17 L470G (UniProt Q15036 1-470, L470G); experiment: fluorescence polarisation
T4 construct: not shown: MBP, N-terminal, kept
T4 sequence (looked up): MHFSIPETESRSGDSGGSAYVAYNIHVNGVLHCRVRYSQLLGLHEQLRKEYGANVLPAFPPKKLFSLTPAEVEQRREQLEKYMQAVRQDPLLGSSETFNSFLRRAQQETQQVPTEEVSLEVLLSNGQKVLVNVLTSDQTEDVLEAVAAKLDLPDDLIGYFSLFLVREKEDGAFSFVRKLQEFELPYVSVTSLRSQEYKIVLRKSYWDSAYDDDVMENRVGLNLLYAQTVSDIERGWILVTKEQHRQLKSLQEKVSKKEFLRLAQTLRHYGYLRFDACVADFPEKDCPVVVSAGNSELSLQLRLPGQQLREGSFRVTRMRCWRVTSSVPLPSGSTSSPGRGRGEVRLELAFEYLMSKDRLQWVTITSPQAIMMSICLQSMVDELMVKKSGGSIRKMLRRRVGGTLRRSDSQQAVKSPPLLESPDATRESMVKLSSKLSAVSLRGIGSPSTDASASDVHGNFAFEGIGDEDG

MBP-SNX17 H457A = molecular target: B2; experiment: fluorescence polarisation

## 5FAM-QQNGYENPTYKFFE (source: synthetic peptide (GenScript)) [Peptide APP_(14mer)]
[1]
  Kd: 19 µM

## DPAFVTTPTKLITYDNPAYEGIDVDNTLYF (domain or fragment, not shown: GST, N-terminal, kept) [GST-L2FBR]
[2]
  binding result: binds

B1: MBP-SNX17 W321A (natural protein)
chain: MHFSIPETESRSGDSGGSAYVAYNIHVNGVLHCRVRYSQLLGLHEQLRKEYGANVLPAFPPKKLFSLTPAEVEQRREQLEKYMQAVRQDPLLGSSETFNSFLRRAQQETQQVPTEEVSLEVLLSNGQKVLVNVLTSDQTEDVLEAVAAKLDLPDDLIGYFSLFLVREKEDGAFSFVRKLQEFELPYVSVTSLRSQEYKIVLRKSYWDSAYDDDVMENRVGLNLLYAQTVSDIERGWILVTKEQHRQLKSLQEKVSKKEFLRLAQTLRHYGYLRFDACVADFPEKDCPVVVSAGNSELSLQLRLPGQQLREGSFRVTRMRCARVTSSVPLPSGSTSSPGRGRGEVRLELAFEYLMSKDRLQWVTITSPQAIMMSICLQSMVDELMVKKSGGSIRKMLRRRVGGTLRRSDSQQAVKSPPLLESPDATRESMVKLSSKLSAVSLRGIGSPSTDASASDVHGNFAFEGIGDEDL
notes: as for B2
Retriever complex [3]
  binding result: binds

## B2
Retriever complex [3]
  binding result: binds

B3: MBP-SNX17 V380D (natural protein)
chain: MHFSIPETESRSGDSGGSAYVAYNIHVNGVLHCRVRYSQLLGLHEQLRKEYGANVLPAFPPKKLFSLTPAEVEQRREQLEKYMQAVRQDPLLGSSETFNSFLRRAQQETQQVPTEEVSLEVLLSNGQKVLVNVLTSDQTEDVLEAVAAKLDLPDDLIGYFSLFLVREKEDGAFSFVRKLQEFELPYVSVTSLRSQEYKIVLRKSYWDSAYDDDVMENRVGLNLLYAQTVSDIERGWILVTKEQHRQLKSLQEKVSKKEFLRLAQTLRHYGYLRFDACVADFPEKDCPVVVSAGNSELSLQLRLPGQQLREGSFRVTRMRCWRVTSSVPLPSGSTSSPGRGRGEVRLELAFEYLMSKDRLQWVTITSPQAIMMSICLQSMDDELMVKKSGGSIRKMLRRRVGGTLRRSDSQQAVKSPPLLESPDATRESMVKLSSKLSAVSLRGIGSPSTDASASDVHGNFAFEGIGDEDL
notes: as for B2
Retriever complex [3]
  binding result: binds

## B4
Retriever complex [4]
  binding result: binds

## 5FAM-KLITYDNPAYEGID (source: synthetic peptide (GenScript)) [Peptide L2_(14mer)]
[1]
  Kd: 0.6 µM
MBP-SNX17 N459A + F462A
  binding result: binds

B5: Peptide ITGB1_(P-14mer) (peptide)
peptide: 5FAM-KWDTGENPIYKSAV
notes: also called ITGB1 membrane-proximal site; source: synthetic peptide (GenScript)
[1]
  Kd: 72 µM

B6: Peptide ITGB1_(D-13mer) (peptide)
peptide: 5FAM-AVTTVVNPKYEGK
notes: also called ITGB1 distal site; source: synthetic peptide (GenScript)
[1]
  Kd: 125 µM

B7: GST-LRP1ICD (domain or fragment, UniProt Q07954 4444-4544, looked up)
chain: YKRRVQGAKGFQHQRMTNGAMNVEIGNPTYKMYEGGEPDDVGGLLDADFALDPDKPTNFTNPVYATLYMGGHGSRHSLASTDEKRELLGRGPEDEIGDPLA
notes: not shown: GST, N-terminal, kept
[2]
  binding result: binds

## 5FAM-MNVEIGNPTYKMYE (source: synthetic peptide (GenScript)) [Peptide LRP1_(14mer)]
[1]
  Kd: 2.2 µM
MBP-SNX17 L470G
  binding result: binds
MBP-SNX17 H457A
  binding result: binds
MBP-SNX17 N459A + F462A
  binding result: binds
